In the supplement of paper PMC9170038:

Test system: MS2 coat protein
Assay: apparent KD of MS2 coat protein; designed switch direction (-1 OFF switch, 1 ON switch): 1; higher = weaker reporter binding
Method in brief: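 Designed RNA switches with common flanks were made on Illumina chips by stalled E. coli RNA polymerase. Titration with SNAP-549-labelled MS2 coat protein doubled from 0.7 or 1.5 nM up to 3 µM. Apparent KD is each design's median over clusters after curve-fitting normalised fluorescence.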

[1] = input ligand: microRNA oligo, concentration not stated
[2] = Eterna round: R95, input ligand: microRNA oligo, concentration not stated
[3] = Eterna round: R95, input ligand: FMN 200 uM
[4] = Eterna round: R95, input ligand: none

Sequence: GCUAGAAUAAAUGCUAACAUGAGGAUCACCCAUGUAUGUUGGCAGGAUAUCGUUUGCAAAGCAAACGAGAAGGGCCAUACUAGC [Mat - Same State NG 3 - JL Mod - D26] (Eterna round: R96, puzzle: Same State NG 3)
- apparent KD of MS2 coat protein (input ligand: FMN 200 uM): 23.1 nM
- apparent KD of MS2 coat protein [1]: 26.3 nM
- apparent KD of MS2 coat protein (input ligand: none): 38.1 nM

Sequence: GCUAGAAUUAAAGCCAACAUGAGGAUCACCCAUGUAUGUUGGUAGGAUAUCGUUUGCAAAGCAAACGAGAAGGGCUAAUCUAGC [Mat - Same State NG 3 - JL Mod - D64] (Eterna round: R96, puzzle: Same State NG 3)
- apparent KD of MS2 coat protein (input ligand: FMN 200 uM): 87 nM
- apparent KD of MS2 coat protein [1]: 48.2 nM
- apparent KD of MS2 coat protein (input ligand: none): 80.2 nM

Sequence: GCUAGGAAUUAAGCCAACAUGAGGAUCACCCAUGUAUGUUGGUAGGAUAUCGUUUGCAAAGCAAACGAGAAGGGCUAACCUAGC [Mat - Same State NG 3 - JL Mod - D72] (Eterna round: R96, puzzle: Same State NG 3)
- apparent KD of MS2 coat protein (input ligand: FMN 200 uM): 80.9 nM
- apparent KD of MS2 coat protein [1]: 55.8 nM
- apparent KD of MS2 coat protein (input ligand: none): 85.3 nM

Sequence: GCUAGUAAAAUUGUCAACAUGAGGAUCACCCAUGUAUGUUGGCAGGAUAUCGUUUGCAAAGCAAACGAGAAGGGCUAAACUAGC [Mat - Same State NG 3 - JL Mod - D12] (Eterna round: R96, puzzle: Same State NG 3)
- apparent KD of MS2 coat protein (input ligand: FMN 200 uM): 58.2 nM
- apparent KD of MS2 coat protein [1]: 186 nM
- apparent KD of MS2 coat protein (input ligand: none): 171 nM

Sequence: GCUCGACGUGUUGUCUACAUGAGGAUCACCCAUGUAGGUGCGGAGGAUAUCUACGUGCUUUAUGUAGAGAAGGUCGUGUCGAGC [SameState NG3 #87] (Eterna round: R96, puzzle: Same State NG 3)
- apparent KD of MS2 coat protein (input ligand: FMN 200 uM): 32.4 nM
- apparent KD of MS2 coat protein [1]: 55.3 nM
- apparent KD of MS2 coat protein (input ligand: none): 66.4 nM

Sequence: GCUCGAUGAAUGUCCUACAUGAGGAUCACCCAUGUUCGUGGGCAGGAUAUUUACAUGCAGAGUGUAGAGAAGGGCCCAUCGAGC [SameState NG3 #63] (Eterna round: R96, puzzle: Same State NG 3)
- apparent KD of MS2 coat protein (input ligand: FMN 200 uM): 43.4 nM
- apparent KD of MS2 coat protein [1]: 63.7 nM
- apparent KD of MS2 coat protein (input ligand: none): 85.1 nM

Sequence: GCUCGAUGUGCUGUUUACAUGAGGAUCACCCAUGUAGAUGCGGAGGAUAUCUACGUGCUUUAUGUAGAGAAGGCCGUAUCGAGC [SameState NG3 #82] (Eterna round: R96, puzzle: Same State NG 3)
- apparent KD of MS2 coat protein (input ligand: FMN 200 uM): 15 nM
- apparent KD of MS2 coat protein [1]: 25.4 nM
- apparent KD of MS2 coat protein (input ligand: none): 35.1 nM

Sequence: GCUCGCACGAUGACCCACAUGAGGAUCACCCAUGUGCUUGGGCAGGAUAUCUAGAUUAAGGAUGUAGAGAAGGGUCGAGCGAGC [SameState NG3 #28] (Eterna round: R96, puzzle: Same State NG 3)
- apparent KD of MS2 coat protein (input ligand: FMN 200 uM): 303 nM
- apparent KD of MS2 coat protein [1]: 69.6 nM
- apparent KD of MS2 coat protein (input ligand: none): 243 nM

Sequence: GCUCGGCUGAUGGCCUACAUGAGGAUCACCCAUGUGAGUGGGCAGGAUAUCUAGAUUAAGGAUGUAGAGAAGGGCCUGCCGAGC [SameState NG3 #37] (Eterna round: R96, puzzle: Same State NG 3)
- apparent KD of MS2 coat protein (input ligand: FMN 200 uM): 708 nM
- apparent KD of MS2 coat protein [1]: 131 nM
- apparent KD of MS2 coat protein (input ligand: none): 496 nM

Sequence: GCUCGUAUCACAACCAACAUGAGGAUCACCCAUGUAUGUUGGUAGGAUAUCUAUAUUAAGGAUAUAGAGAAGGGCCGAACGAGC [SameState NG3 #12] (Eterna round: R96, puzzle: Same State NG 3)
- apparent KD of MS2 coat protein (input ligand: FMN 200 uM): 53.7 nM
- apparent KD of MS2 coat protein [1]: 59.7 nM
- apparent KD of MS2 coat protein (input ligand: none): 82.3 nM

Sequence: GCUGCAAGGGCAGGAUAUGGGUUCAGAGCGGAAGUGCGCUUUGAUACAUGAGGAUCACCCAUGUCCCAGAAGGGCCCAUGCGGC [Arredibi] (Eterna round: R96, puzzle: Same State NG 2)
- apparent KD of MS2 coat protein (input ligand: FMN 200 uM): 19.1 nM
- apparent KD of MS2 coat protein [1]: 78.4 nM
- apparent KD of MS2 coat protein (input ligand: none): 113 nM

Sequence: GCUUCACAUGAGGAUCACCCAUGUCUUCGGAGUCGAGGAUAUGGUAACUGUAAACAGUUGCCAGAAGGCGAGGAGC [SS1 - Son of Teenbexe v9] (Eterna round: R96, puzzle: Same State 1)
- apparent KD of MS2 coat protein (input ligand: FMN 200 uM): 48.8 nM
- apparent KD of MS2 coat protein [1]: 55.3 nM
- apparent KD of MS2 coat protein (input ligand: none): 66 nM

Sequence: GCUUCACAUGAGGAUCACCCAUGUCUUCGGAGUCGAGGAUAUGGUAACUGUAAACAGUUGCCAGAAGGCGAGGAGC [SS1 - Son of Teenbexe v9] (puzzle: Same State 1)
- apparent KD of MS2 coat protein [2]: 54.6 nM

Sequence: GGAAUAUUCACAGGAUAUGAGUUGUAAAGUGGAUCAGAAGGGUGGGUGUUUUGCACGGUGUGUUACAUGAGGAUCACCCAUGUU [SameState NG1 #23] (Eterna round: R96, puzzle: Same State NG 1)
- apparent KD of MS2 coat protein (input ligand: FMN 200 uM): 82.4 nM
- apparent KD of MS2 coat protein [1]: 241 nM
- apparent KD of MS2 coat protein (input ligand: none): 418 nM

Sequence: GGAAUAUUUACAGGAUAUGAGUUGUAAAGUCGAUCAGAAGGGUAGAUGUCUUACACGGUGUGUUACAUGAGGAUCACCCAUGUU [SameState NG1 #19] (Eterna round: R96, puzzle: Same State NG 1)
- apparent KD of MS2 coat protein (input ligand: FMN 200 uM): 169 nM
- apparent KD of MS2 coat protein [1]: 160 nM
- apparent KD of MS2 coat protein (input ligand: none): 218 nM

Sequence: GGAAUAUUUACAGGAUAUGAUUUGUAAAUUCGAUCAGAAGGGUGGAUGUCUUACACGGUUUGUUACAUGAGGAUCACCCAUGUC [SameState NG1 #12] (Eterna round: R96, puzzle: Same State NG 1)
- apparent KD of MS2 coat protein (input ligand: FMN 200 uM): 452 nM
- apparent KD of MS2 coat protein [1]: 253 nM
- apparent KD of MS2 coat protein (input ligand: none): 376 nM

Sequence: GGACGUCAUCUCAAUAAUUAAACAUGAGGAUCACCCAUGUCACAGGAUAUGGAUCCUAAUUGGAUCCAGAAGGGUGUGACGUCC [Fiskers NG3ss - 40] (Eterna round: R96, puzzle: Same State NG 3)
- apparent KD of MS2 coat protein (input ligand: FMN 200 uM): 54.3 nM
- apparent KD of MS2 coat protein [1]: 56 nM
- apparent KD of MS2 coat protein (input ligand: none): 66.1 nM

Sequence: GGACGUCGAUCUCCUACUUAAACAUGAGGAUCACCCAUGUCACAGGAUAUGAGUCCGAUUAGGACUCAGAAGGGUGCGACGUCC [Fiskers NG3ss - 51] (Eterna round: R96, puzzle: Same State NG 3)
- apparent KD of MS2 coat protein (input ligand: FMN 200 uM): 14 nM
- apparent KD of MS2 coat protein [1]: 12.3 nM
- apparent KD of MS2 coat protein (input ligand: none): 18.6 nM

Sequence: GGAGCCAAGGCAGGAUAUUCAUAUAAAUAAACAUGAGGAUCACCCAUGUAGGCCAGAAGGCCUUGGGAGAAGGGCCAUGGCUCG [Xeonanis - 13 mod6] (Eterna round: R96, puzzle: Same State NG 2)
- apparent KD of MS2 coat protein (input ligand: FMN 200 uM): 19.4 nM
- apparent KD of MS2 coat protein [1]: 69.8 nM
- apparent KD of MS2 coat protein (input ligand: none): 121 nM

Sequence: GGAGCCAGCACCGAGGAUAUUCAUAUUAAAACAUGAGGAUCACCCAUGUAGGCCAGAAGGCCUUGGGAGAAGGCGGACUGGCUCG [Xeonanis - 11] (Eterna round: R96, puzzle: Same State 2)
- apparent KD of MS2 coat protein (input ligand: FMN 200 uM): 18.8 nM
- apparent KD of MS2 coat protein [1]: 212 nM
- apparent KD of MS2 coat protein (input ligand: none): 364 nM

Sequence: GGAGCCAGCACCGAGGAUAUUCAUAUUAAAACAUGAGGAUCACCCAUGUAGGCCAGAAGGCCUUGGGAGAAGGCGGACUGGCUCG [Xeonanis - 11] (puzzle: Same State 2)
- apparent KD of MS2 coat protein [3]: 28.5 nM
- apparent KD of MS2 coat protein [2]: 221 nM
- apparent KD of MS2 coat protein [4]: 976 nM

Sequence: GGAGCCGGCACUGAGGAUAUUCAUAUUAAAACAUGAGGAUCACCCAUGUAGGCCAGAAGGCCUUGGGAGAAGGCAGGCCGGCCCG [Bibimoar - 1] (puzzle: Same State 2)
- apparent KD of MS2 coat protein [3]: 18.8 nM
- apparent KD of MS2 coat protein [2]: 177 nM
- apparent KD of MS2 coat protein [4]: 276 nM

Sequence: GGAGCCGGCACUGAGGAUAUUCAUAUUAAAACAUGAGGAUCACCCAUGUAGGCCAGAAGGCCUUGGGAGAAGGCAGGUCGGCUCG [Arinin] (Eterna round: R96, puzzle: Same State 2)
- apparent KD of MS2 coat protein (input ligand: FMN 200 uM): 20 nM
- apparent KD of MS2 coat protein [1]: 188 nM
- apparent KD of MS2 coat protein (input ligand: none): 283 nM

Sequence: GGAGCCGGCACUGAGGAUAUUCAUAUUAAAACAUGAGGAUCACCCAUGUAGGCCAGAAGGCCUUGGGAGAAGGCAGGUCGGCUCG [salish99_ss2_r3_075] (Eterna round: R96, puzzle: Same State 2)
- apparent KD of MS2 coat protein (input ligand: FMN 200 uM): 20 nM
- apparent KD of MS2 coat protein [1]: 188 nM
- apparent KD of MS2 coat protein (input ligand: none): 283 nM

Sequence: GGAGCCGGCACUGAGGAUAUUCAUAUUAAAACAUGAGGAUCACCCAUGUAGGCCAGAAGGCCUUGGGAGAAGGCAGGUCGGCUCG [salish99_ss2_r3_075] (puzzle: Same State 2)
- apparent KD of MS2 coat protein [3]: 27.1 nM
- apparent KD of MS2 coat protein [2]: 408 nM
- apparent KD of MS2 coat protein [4]: 901 nM

Sequence: GGAGCCGGCCUAGGAUAUUUCAUAAAGAAACAUGAGGAUCACCCAUGUAGGCCAGAAGGCCUUGGGAAGAAGGAGGUCGGCUCC [Loop Effect - G27] (Eterna round: R96, puzzle: Same State NG 2)
- apparent KD of MS2 coat protein (input ligand: FMN 200 uM): 12.4 nM
- apparent KD of MS2 coat protein [1]: 29 nM
- apparent KD of MS2 coat protein (input ligand: none): 28.7 nM

Sequence: GGAGCCGGCCUAGGAUAUUUCAUAGAAAAACAUGAGGAUCACCCAUGUAGGCCAGAAGGCCUUGGGAAGAAGGAGGUCGGCUCC [Loop Effect - G25] (Eterna round: R96, puzzle: Same State NG 2)
- apparent KD of MS2 coat protein (input ligand: FMN 200 uM): 9.45 nM
- apparent KD of MS2 coat protein [1]: 19.5 nM
- apparent KD of MS2 coat protein (input ligand: none): 31.2 nM

Sequence: GGAGGACAUGAGGAUCACCCAUGUGGAUGAACGCUAGGAUAUGCGUGCAGGAAGAGUGGAGCAGAAGGAGUGGGUU [JR_SS1_Sub046] (puzzle: Same State 1)
- apparent KD of MS2 coat protein [2]: 21.7 nM

Sequence: GGAUCAUGACGAGGAUAUGGUACAUGAGGAUCACCCAUGUAUGUACCACGACGGAAACGUCGAAUCCAGAAGGCGUCAUGAUCG [Mat - Same State NG 2 - JL mod - D39] (Eterna round: R96, puzzle: Same State NG 2)
- apparent KD of MS2 coat protein (input ligand: FMN 200 uM): 25.3 nM
- apparent KD of MS2 coat protein [1]: 70.1 nM
- apparent KD of MS2 coat protein (input ligand: none): 120 nM

Sequence: GGAUCGGAGGCAGGAUAUGGGCUCAGAACAUGAGGAUCACCCAUGUAAAACGGCGCAAUGCGCCACCAGAAGGGCCUCCAGUCG [Esussoed] (Eterna round: R96, puzzle: Same State NG 2)
- apparent KD of MS2 coat protein (input ligand: FMN 200 uM): 13.2 nM
- apparent KD of MS2 coat protein [1]: 25.7 nM
- apparent KD of MS2 coat protein (input ligand: none): 44.1 nM
